{"source": "patent US20090188010A1", "key": {"[1]": {"biological_target": "NaPI-insensitive chymotrypsin from H. punctigera (HpCh5), native enzyme from the larval gut (Helicoverpa punctigera)", "sequence (chain, as listed by the source limits assumed)": "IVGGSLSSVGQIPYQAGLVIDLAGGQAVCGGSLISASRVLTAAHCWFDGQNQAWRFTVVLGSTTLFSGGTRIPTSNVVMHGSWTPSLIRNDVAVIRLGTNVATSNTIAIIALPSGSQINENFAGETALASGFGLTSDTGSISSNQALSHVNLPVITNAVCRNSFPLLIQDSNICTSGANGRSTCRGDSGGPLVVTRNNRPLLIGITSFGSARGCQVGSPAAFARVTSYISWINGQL", "assay": "cell-based or functional assay"}, "[2]": {"biological_target": "chymotrypsins in unfractionated gut extracts from H. punctigera larvae", "assay": "cell-based or functional assay"}}}
{"binder": "StPotIB, bacterially expressed with N-terminal 6xHis-tag (protein, not shown: small tags and cut ends) KEFECNGKQFWPELIGVPTKLAKEIIEKENSLINNVQILLNGSPVTMDYRCNRVRLFDNILGSVVQIPRVA", "values": [{"measurement": "inhibition of SA2PFpNA or SA2PLpNA hydrolysis at 300 nM inhibitor", "setting": "[1]", "value": "> 75", "unit": "%"}, {"measurement": "inhibition of SA2PMpNA hydrolysis", "setting": "[1]", "value": 40, "unit": "%"}]}
{"binder": "recombinant C1 inhibitor with N-terminal hexahistidine tag, expressed in E. coli (protein, not shown: small tags and cut ends) DRICTNCCAGTKGCKYFSDDGTFVCEGESDPRNPKACTLNCDPRIAYGVCPRSEEKKN", "values": [{"measurement": "inhibition of gut chymotrypsin activity, unfractionated gut extract (FIG. 3)", "setting": "[2]", "value": 70, "unit": "%"}]}
{"binder": "StPotIA, bacterially expressed with N-terminal 6xHis-tag (protein, not shown: small tags and cut ends) KESESESWCKGKQFWPELIGVPTKLAKEIIEKENPSINDVPIILNGTPVPADFRCNRVRLFDNILGDVVQIPRVA", "values": [{"measurement": "inhibition of SA2PFpNA or SA2PLpNA hydrolysis at 300 nM inhibitor", "setting": "[1]", "value": "> 75", "unit": "%"}, {"measurement": "inhibition of SA2PMpNA hydrolysis", "setting": "[1]", "value": 40, "unit": "%"}]}
